{"source": "paper PMC5491494", "about": "“Functional and dynamic polymerization of the ALS-linked protein TDP-43 antagonizes its pathologic aggregation” (Nature Communications, 2017)", "proteins": {"B1": {"name": "wild-type superoxide dismutase 1 (SOD1), endogenous mouse (enzyme)", "chain": "not shown", "notes": "superoxide dismutase 1, mouse, endogenous in brain slices; source: endogenous, mouse brain slices"}}, "target": "the molecule itself", "experiment": "cross-linking; in situ 1 mM DSG on minced human brain tissue (cerebellum, motor cortex) or mouse organotypic brain slices (control or 0.25 mM arsenite for 2 h), 37 °C, 30 min, quenched with 20 mM Tris; nucleo-cytoplasmic fractionation; immunoblot", "data": [{"protein": "B1", "values": [{"measurement": "stoichiometry N", "result": 2}]}]}
